{"source": "patent US10688197B2", "about": "“Non-alcoholic fatty liver regulator 14-3-3 protein” (Korea University Research and Business Foundation, priority 2015, dated 2020)", "key": {"PPARγ2 S273A mutant": {"target": "T1, PPARγ2 S273A mutant (Homo sapiens, UniProt P37231, S273A)", "T1 construct": "expressed in transfected cells; host or cells: HEK-293T", "T1 sequence (P37231 1-505 S273A)": "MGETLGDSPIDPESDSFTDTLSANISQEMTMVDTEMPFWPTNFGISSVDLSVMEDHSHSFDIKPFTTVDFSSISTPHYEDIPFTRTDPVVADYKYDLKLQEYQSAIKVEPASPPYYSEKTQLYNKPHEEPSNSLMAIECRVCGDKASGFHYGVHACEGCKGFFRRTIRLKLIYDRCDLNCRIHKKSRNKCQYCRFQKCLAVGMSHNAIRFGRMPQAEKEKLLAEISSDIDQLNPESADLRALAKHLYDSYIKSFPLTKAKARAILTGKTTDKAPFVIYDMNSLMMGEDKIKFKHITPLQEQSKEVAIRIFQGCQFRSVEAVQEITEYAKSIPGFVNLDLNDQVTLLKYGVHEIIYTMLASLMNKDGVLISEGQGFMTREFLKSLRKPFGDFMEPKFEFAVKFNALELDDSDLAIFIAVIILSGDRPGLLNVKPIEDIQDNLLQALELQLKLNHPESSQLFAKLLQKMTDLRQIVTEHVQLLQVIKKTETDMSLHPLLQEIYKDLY", "test": "GST-pull down assay with PPARγ2 S273A mutant", "assay_type": "binding", "details": "FIGS. 4A and 4B", "procedure": "14-3-3 proteins are known to bind to phosphorylated residues of a target protein. Phosphorylated residues associated with the activity of PPARγ2 are known to be serine 112 and serine 273. Thus, PPARγ2 mutants (PPARγ2 S112A and S273A) with non-phosphorylated serine 112 and serine 273 residues were produced and binding thereof with 14-3-3 proteins was verified through GST-pull down assay.\nHEK-293T cells were seeded in a 100 mm plate at a density of 2×10^6 cells per each well, and then transfected with Flag-PPARγ2 (WT) DNA (4 μg), Flag-PPARγ2 (S112A) DNA (4 μg), Flag-PPARγ2 (S273A) DNA (4 μg), and mGST-14-3-3β (4 μg) or mGST-14-3-3γ (4 μg) using an E-fection plus reagent (Lugen). As for Flag-PPARγ2 (S112A) DNA and Flag-PPARγ2 (S273A) DNA, DNA fragments amplified through polymerase chain reaction (PCR) were cloned into a Flag-tagged vector. A ratio of DNA to the E-fection plus reagent was 1:2, and this method was performed according to a manufacturer's manual. The corresponding cells were washed with ice-cold PBS and lysed using 500 μl/well of a lysis buffer (150 mM NaCl, 1 mM EDTA, 1% Nonidet P-40, 5% glycerol, 25 mM tris-HCl, pH 7.5, protease inhibitor added), and the lysed cells were centrifuged at 10,000×g and 4° C. for 10 minutes to extract proteins. […]"}, "FAT/CD36 promoter": {"test_system": "FAT/CD36 promoter", "test": "Chromatin immunoprecipitation (ChIP assay), binding of PPARγ2 to FAT/CD36 promoter in HepG2 cells", "assay_type": "cell-based", "details": "overexpression, FIG. 7C upper side", "procedure": "In addition, for chromatin immunoprecipitation (ChIP), HepG2 cells were seeded in a 100 mm plate at a density of 4×10^6 cells per each well, and then transfected with Flag-PPARγ2 DNA (4 μg), mGST-14-3-3β DNA (4 μg) or mGST-14-3-3γ DNA (4 μg), and si-14-3-3β (20 μM, Santa Cruz) or si-14-3-3γ (20 μM, Santa Cruz) using an E-fection plus reagent (Lugen). A ratio of DNA to the E-fection plus reagent was 1:2, and this method was performed according to a manufacturer's manual. The corresponding cells were treated with 0.75% formaldehyde at room temperature for 15 minutes, glycine was added thereto, and the resulting cells were scraped into ice-cold PBS and centrifuged at 1,000×g and 4° C. for 3 minutes to remove a supernatant, pellets were dissolved with 400 μl of FA lysis buffer (50 mM HEPES, 150 mM NaCl, 2 mM EDTA pH 8.0, 1% Triton-X100, 0.1% NaDeoxycholate), and then lysed using a sonicator twice for 10 minutes at a high voltage under the following condition: lysis for 30 seconds and resting for 30 seconds. […]\nIn addition, the binding of PPARγ2 and a binding strength thereof according to the expression of 14-3-3β and 14-3-3γ were evaluated by ChIP assay using a PPAR response element (PPRE) known as a binding site of PPARγ2 present in the FAT/CD36 promoter. […]"}}, "data": [{"substance": "14-3-3β: 14-3-3 isoform protein overexpressed by DNA transfection; increases the transcriptional activity of PPARγ2 by binding to PPARγ2", "values": [{"measurement": "binding with PPARγ2 S273A mutant", "setting": "PPARγ2 S273A mutant", "result": "suppressed"}, {"measurement": "binding of PPARγ2 to the FAT/CD36 promoter", "setting": "FAT/CD36 promoter", "result": "increased"}]}, {"substance": "14-3-3γ: 14-3-3 isoform protein overexpressed by DNA transfection; decreases the transcriptional activity of PPARγ2; proposed active ingredient", "values": [{"measurement": "binding with PPARγ2 S273A mutant", "setting": "PPARγ2 S273A mutant", "result": "suppressed"}, {"measurement": "binding of PPARγ2 to the FAT/CD36 promoter", "setting": "FAT/CD36 promoter", "result": "inhibited"}]}]}
